B1: 11S: evolved non-luminescent polypeptide variant 11S (12S-51) (protein)
chain: MVFTLEDFVGDWEQTAAYNLDQVLEQGGVSSLLQNLAVSVTPIQRIVRSGENALKIDIHVIIPYEGLSADQMAQIEEVFKVVYPVDDHHFKVILPYGTLVIDGVTPNMLNYFGRPYEGIAVFDGKKITVTGTLWNGNKIIDERLITPDGSMLFRVTINS
B2: L149M (protein)
chain: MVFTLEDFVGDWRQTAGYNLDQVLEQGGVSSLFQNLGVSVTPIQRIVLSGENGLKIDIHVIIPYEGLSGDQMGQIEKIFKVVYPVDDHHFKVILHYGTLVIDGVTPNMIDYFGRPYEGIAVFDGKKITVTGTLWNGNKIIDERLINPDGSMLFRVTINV

Legend:
[1] = test system: wt Oplophorus 157-169 peptide; experiment: Relative specific activity in HEK293T lysates (Example 143); type: biochemical; settings: averages of Vmax and Bmax normalized to NanoLuc
Protocol: Each clone was inserted into pFN21A HaloTag® CMV Flexi® Vector (Promega G2821), and lysates were prepared as follows: 3 ml HEK293T cells that have been diluted to a concentration of 200,000 cells/ml (600,000 cells total) were plated into each well of a 6-well plate and grown overnight at 37° C. in a CO2 incubator. The following day transfection complexes of each DNA were prepared by combining […] of DNA, Opti-MEM® (Life Technologies 11058-021) to a final volume of 310 μl and 20 μl of FuGENE® HD (Promega E231a). The transfection complexes were incubated for 20 minutes and then 150 μl of each complex added in duplicate to cells. The cells were grown overnight 37° C. in a CO2 incubator. The following day, the cells were washed cells with DPBS (Life Technologies 14190-144), and 1 ml fresh DPBS added. Cells were frozen to lyse and then thawed for testing. Duplicate transfection reactions lysates were combined.
In order to compare the specific activities of Nluc (full length enzyme) to wt Oplophorusl-156 and NLpoly11S in combination with wt Oplophorus 157-169 peptide (binary proteins), substrate titrations were run for all of the samples, but for the binary samples substrate titrations were run at multiple peptide concentrations. Using this format, it was possible to calculate a Vmax value for Nluc and both Vmax and Bmax values for NLpoly11S and wt Oplophorus 1-156. Three separate experiments were run using this format and Vmax and Bmax values were normalized to the Vmax of NanoLuc. Relative specific activities (calculated as averages of Vmax and Bmax) are normalized to NanoLuc.

NLpep78-HT or NLpep79-HT = experiment: Luminescence of NLpoly variants without NLpep or with NLpep78-HT / NLpep79-HT (Example 93); type: biochemical; settings: E. coli expression culture
[2] = Substrate specificity of NLpoly 5P and 11S with NLpep79 (Example 97); type: biochemical
Protocol: E. coli clarified lysates were prepared for NLpoly 5P or 11S as described previously. The NLpoly lysates were then serially diluted in steps of 10-fold into PBS+0.1% Prionex.

[3] = Luminescence of NLpoly without NLpep, E. coli clarified lysate (Example 57); type: biochemical; settings: E. coli clarified lysate + NanoGlo+Fz
Protocol: 50 μL of each lysate and 50 uL NanoGlo+Fz were mixed and incubated for 5 min RT. Luminescence was measured on GloMax® Multi+ with 0.5 sec integration.

[…] peptide [4] = biological target: T1, […] peptide (Oplophorus gracilirostris, UniProt Q9GV45); experiment: Non-luminescent polypeptide mutant luminescence after complementation with peptide (Example 5, Table 4); settings: E. coli culture of polypeptide mutant + 1x peptide solution; NANOGLO reagent
[…] peptide [5] = biological target: T1, […] peptide; experiment: as above; settings: E. coli culture of polypeptide mutant + 1x peptide solution; NANOGLO reagent; remark: listed apart in the source

| Molecule | Relative specific activity (*with wt 157-169 peptide) [1] | Luminescence without NLpep or with NLpep78 or NLpep79 (NLpep78-HT or NLpep79-HT) | Substrate specificity for furimazine [2] | Luminescence in the absence of NLpep, higher than WT NLpoly [3] [fold] | Luminescence with […] ([…] peptide [4]) | Luminescence with […] ([…] peptide [5]) |
| --- | --- | --- | --- | --- | --- | --- |
| B1 | 0.18* | improved luminescence over the other variants | superior specificity for furimazine than 5P | ~500 |  |  |
| B2 |  |  |  |  | 2.89 RLU(mutant)/RLU(WT) | 2.16 RLU(mutant)/RLU(WT) |

From patent US12366572B2, “Activation of bioluminescence by structural complementation” (Promega Corporation, priority 2013, dated 2025)
